The record followed here is patent US6821739B2, “Methods of diagnosing and treating Crohn's disease using Pseudomonas antigens” (The Regents of the University of California, priority 2000, dated 2004).

The assay deals with CD4+ T cells from C57BL/6J mice. Type of assay: cell-based, mouse. To be noted: 72 hours.

B1: PFTR: P. fluorescens polypeptide of 198 amino acids (SEQ ID NO: 5), similar to bacterial ferrodoxins (protein)
chain: MRTMVDSGQLTDPESARGKLLQTAAHLFRNKGFERTTVRDLASAVGIQSGSIFHHFKSKDEILRAVMEETTHYNTAMMRASLEEASTVRERVLALIRCKLQSIMGGSGEAMAVLVYEWRSLSAEGQAHVLALRDVYEQIWLQVLGEAKAAGYIRGDVFITRRFLTGALSWTTTWFRAQGSLTLEELAEEALLMVLKSD
modifications: P. fluorescens
In the case of B1, the “stimulation of CD4+ T cell proliferation” value is “strongly stimulated”.
